Assays:
[1] = target: the molecule itself; test: MALS / size exclusion chromatography
Excerpt: FIG. 3(a) Generation of a CFHR5 protein lacking critical amino acids within the dimerisation motif. Monomeric CFHR5 (CFHR5^{dimer mutant}) was generated by mutating the three stabilizing amino acids (Tyr34Ser, Ser36 Tyr, Tyr39Glu) within the dimerisation motif to the corresponding amino acids within CFH. FIG. 3(b) Analysis of recombinant CFHR5 and CFHR5^{dimer mutant} using SDS PAGE gel electrophoresis. Both the wild type and dimer mutants were purified to single homogenous species as visualized by denaturing electrophoresis. FIG. 3(c) Analysis of recombinant CFHR5 and CFHR5^{dimer mutant} using size exclusion chromatography. Size exclusion chromatography was performed on a Superdex200 10/30 column (GE Healthcare) equilibrated in 50 mM Tris.HCl, pH 7.5, 150 mM NaCl at 0.4 ml/min. The column was followed in-line by an Optilab-Rex refractive index monitor (Wyatt Technologies). The CFHR5 dimer elutes early from the column (blue trace) whilst the monomeric CFHR5^{dimer mutant} protein elutes at a larger column volume (red trace). FIG. 3(d) Interaction of CFHR5 and CFHR5^{dimer mutant} with renal-bound mouse C3 in vivo.
The inventors next explored the functional consequences of dimerisation. They predicted that dimerisation would enhance ligand interaction through avidity. To test this they generated monomeric and dimeric CFHR5 proteins. […]

[2] = target: the molecule itself; test: X-ray crystal structure
Procedure: Crystals were grown using the sitting drop vapour diffusion method from 0.2 μL, protein+0.2 μL mother liquor drops at […] using protein stocks at A280=3.3 and 7.8 for CFHR112 and CFHR234 respectively. CFHR112 crystals grew from a mother liquor containing 36% PEG 2000 MME, 0.1M MES pH 6.5. CFHR234 crystals grew in 30% PEG 8000, 0.2M ammonium sulphate. Crystals were plunge cooled in liquid nitrogen following cryoprotection in 20% and 15% ethylene glycol for CFHR112 and CFHR234, respectively. Data were collected at both the ESRF and DIAMOND using the rotation method with oscillation ranges of 0.150 or 0.20 at 120 K. CFHR112 data were collected at beamline ID29 (ESRF, Grenoble) with λ=1.7105 Å. CFHR234 data were collected at beamline I04-1 (DIAMOND, UK) with λ=0.9173 Å. Data were integrated and scaled using XIA2 19 with the −3dii option to enforce usage of XDS 20 for integration and SCALA for scaling 21.

[3] = target: T1, C5 (UniProt P01031 19-673; P01031 678-1676, limits assumed); test: SPR, CFHR112 immobilised (750 RU), C5 flowed
T1 construct: also called complement C5
T1 sequence (P01031 19-673 limits assumed, chain 1 of 2): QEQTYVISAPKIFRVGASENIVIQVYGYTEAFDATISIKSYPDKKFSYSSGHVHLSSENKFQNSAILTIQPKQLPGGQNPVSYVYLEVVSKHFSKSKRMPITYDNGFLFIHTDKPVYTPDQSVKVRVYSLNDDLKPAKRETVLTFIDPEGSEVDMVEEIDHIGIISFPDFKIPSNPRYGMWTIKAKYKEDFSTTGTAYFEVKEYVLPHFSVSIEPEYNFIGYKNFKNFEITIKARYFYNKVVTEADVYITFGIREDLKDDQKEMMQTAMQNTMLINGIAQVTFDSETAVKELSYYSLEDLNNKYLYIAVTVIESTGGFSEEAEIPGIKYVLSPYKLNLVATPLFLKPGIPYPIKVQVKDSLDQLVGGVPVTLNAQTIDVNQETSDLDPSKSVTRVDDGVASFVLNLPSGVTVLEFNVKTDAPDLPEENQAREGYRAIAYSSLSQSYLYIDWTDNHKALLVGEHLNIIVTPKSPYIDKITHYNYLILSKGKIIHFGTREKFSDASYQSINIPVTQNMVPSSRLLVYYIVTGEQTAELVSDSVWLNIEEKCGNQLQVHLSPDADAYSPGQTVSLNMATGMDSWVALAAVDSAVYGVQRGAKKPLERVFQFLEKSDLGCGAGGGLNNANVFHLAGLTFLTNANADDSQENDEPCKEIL
T1 sequence (P01031 678-1676 limits assumed, chain 2 of 2): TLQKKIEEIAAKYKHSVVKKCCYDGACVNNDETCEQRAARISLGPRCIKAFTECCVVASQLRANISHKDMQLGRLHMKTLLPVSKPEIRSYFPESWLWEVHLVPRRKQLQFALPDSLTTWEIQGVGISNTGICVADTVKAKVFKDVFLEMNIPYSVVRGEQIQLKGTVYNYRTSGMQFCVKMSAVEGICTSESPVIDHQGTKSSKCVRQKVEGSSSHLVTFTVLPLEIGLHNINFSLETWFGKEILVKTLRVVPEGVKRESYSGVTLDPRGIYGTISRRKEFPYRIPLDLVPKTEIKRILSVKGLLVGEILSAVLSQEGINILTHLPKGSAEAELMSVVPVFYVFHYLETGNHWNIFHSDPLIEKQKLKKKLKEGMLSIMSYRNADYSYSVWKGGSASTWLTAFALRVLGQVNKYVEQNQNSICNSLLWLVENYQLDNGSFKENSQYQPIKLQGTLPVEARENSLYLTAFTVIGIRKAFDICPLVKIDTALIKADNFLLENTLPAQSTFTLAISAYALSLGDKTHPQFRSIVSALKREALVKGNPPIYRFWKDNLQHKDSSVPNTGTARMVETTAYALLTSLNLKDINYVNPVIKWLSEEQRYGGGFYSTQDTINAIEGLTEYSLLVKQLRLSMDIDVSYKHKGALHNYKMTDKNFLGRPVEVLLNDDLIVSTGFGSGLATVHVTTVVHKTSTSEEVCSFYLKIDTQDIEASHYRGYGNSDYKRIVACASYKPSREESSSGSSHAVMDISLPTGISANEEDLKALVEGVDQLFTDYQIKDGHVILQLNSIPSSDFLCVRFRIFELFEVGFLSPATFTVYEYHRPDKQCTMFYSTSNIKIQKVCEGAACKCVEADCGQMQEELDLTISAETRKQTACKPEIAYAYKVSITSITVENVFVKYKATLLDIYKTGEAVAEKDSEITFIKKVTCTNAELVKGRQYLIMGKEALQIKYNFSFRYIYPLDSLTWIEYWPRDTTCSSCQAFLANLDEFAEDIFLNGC

B1: CFHR5 dimer mutant (Tyr34Ser, Ser36Tyr, Tyr39Glu) (other)
chain: EGTLCDFPKIHHGFLYDEEDYNPFSQVPTGEVFSYYCEENFVSPSKSFWTRITCTEEGWSPTPKCLRMCSFPFVKNGHSESSGLIHLEGDTVQIICNTGYSLQNNEKNISCVERGWSTPPICSFTKGECHVPILEANVDAQPKKESYKVGDVLKFSCRKNLIRVGSDSVQCYQFGWSPNFPTCKGQVRSCGPPPQLSNGEVKEIRKEEYGHNEVVEYDCNPNFIINGPKKIQCVDGEWTTLPTCVEQVKTCGYIPELEYGYVQPSVPPYQHGVSVEVNCRNEYAMIGNNMITCINGIWTELPMCVATHQLKRCKIAGVNIKTLLKLSGKEFNHNSRIRYRCSDIFRYRHSVCINGKWNPEVDCTEKREQFCPPPPQIPNAQNMTTTVNYQDGEKVAVLCKENYLLPEAKEIVCKDGRWQSLPRCVESTAYCGPPPSINNGDTTSFPLSVYPPGSTVTYRCQSFYKLQGSVTVTCRNKQWSEPPRCLDPCVVSEENMNKNNIQLKWRNDGKLYAKTGDAVEFQCKFPHKAMISSPPFRAICQEGKFEYPICE
notes: also called monomeric CFHR5
B1: no binding [1].

B2: CFHR112 (recombinant first two SCR domains of CFHR1) (other)
chain: EATFCDFPKINHGILYDEEKYKPFSQVPTGEVFYYSCEYNFVSPSKSFWTRITCTEEGWSPTPKCLRLCFFPFVENGHSESSGQTHLEGDTVQIICNTGYRLQNNENNISCVERGWSTPPKCRST
notes: Head-to-tail homodimer in crystal and in solution; also called CFHR1,2; recombinant CFHR1 domains 1 and 2
B2: binds [2]; no binding [3].

— patent US20150361183A1 (IMPERIAL INNOVATIONS, published 2015)
